Results on three molecules are retold here after patent US20200207850A1 (MacroGenics, published 2020).

Experiment [1] has as its target T1, CD8 on human T cells (PBMC) (human, UniProt P01732 22-235).
T1 construct: whole, on cells; The CD8+ (CD5+ CD4-) cells also carry CD3; also called CD5+ CD4- gated PBMC; CD8+ T cells
The experiment in a line: flow cytometry on human PBMC gated CD5+/CD4- (cells carry CD8 and CD3), detection with anti-human Fc-PE. A general note: In flow cytometry, cells or beads pass a laser one at a time.

For experiment [2], the target named is T2, 5T4 on JIMT-1 target cells (UniProt Q13641 32-420, limits assumed).
T2 sequence (looked up): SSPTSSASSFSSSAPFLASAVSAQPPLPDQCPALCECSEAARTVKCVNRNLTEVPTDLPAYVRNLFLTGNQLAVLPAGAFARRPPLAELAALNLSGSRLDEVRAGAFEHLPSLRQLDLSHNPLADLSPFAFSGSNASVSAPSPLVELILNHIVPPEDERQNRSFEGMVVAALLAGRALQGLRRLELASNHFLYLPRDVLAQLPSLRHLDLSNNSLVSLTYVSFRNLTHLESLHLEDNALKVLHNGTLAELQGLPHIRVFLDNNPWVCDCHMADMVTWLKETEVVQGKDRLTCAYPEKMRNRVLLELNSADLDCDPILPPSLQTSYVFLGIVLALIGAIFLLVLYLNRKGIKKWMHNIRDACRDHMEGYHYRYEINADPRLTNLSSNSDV
The experiment in a line: cell-based or functional assay.

The target of experiment [3] is T1, CD8 on human T cells (PBMC). The experiment can be described thus: flow cytometry on human PBMC, CD5+/CD4- gated cells (bear CD8 and CD3), detection PE anti-human Fc (MFI).
Procedure: 50 μL (4×10⁶ cells/mL) of well-mixed cells in FACS buffer containing 0.01% sodium azide were then added into corresponding wells and mixed thoroughly using a pipette. The plate was incubated in the dark for about 45 minutes at 2-8° C. At the end of the incubation, the cells were washed twice by adding 300 μL of FACS buffer to each well, centrifuging the plate at 1,200 rpm for 5 minutes, and discarding the supernatant. The cell pellets were re-suspended in 100 μL mixture of PE-conjugated goat anti-Human Fcγ 1:500 diluted, CD5-APC and CD4-PerCP5.5 in FACS buffer containing 0.01% sodium azide, and incubated in the dark for about 45 minutes at 2-8° C. At the end of the incubation, the cells were washed, re-suspended with FACS buffer, and analyzed with a BD Caliber flow cytometer. Cells were gated to CD5⁺ CD4⁺ (FIG. 9A) or CD5⁺ CD4⁻ (FIG. 9B).
Experiment [4] deals with T3, B7-H3 on A498 and JIMT-1 target cells (UniProt Q5ZPR3 29-534, limits assumed).
T3 sequence (looked up): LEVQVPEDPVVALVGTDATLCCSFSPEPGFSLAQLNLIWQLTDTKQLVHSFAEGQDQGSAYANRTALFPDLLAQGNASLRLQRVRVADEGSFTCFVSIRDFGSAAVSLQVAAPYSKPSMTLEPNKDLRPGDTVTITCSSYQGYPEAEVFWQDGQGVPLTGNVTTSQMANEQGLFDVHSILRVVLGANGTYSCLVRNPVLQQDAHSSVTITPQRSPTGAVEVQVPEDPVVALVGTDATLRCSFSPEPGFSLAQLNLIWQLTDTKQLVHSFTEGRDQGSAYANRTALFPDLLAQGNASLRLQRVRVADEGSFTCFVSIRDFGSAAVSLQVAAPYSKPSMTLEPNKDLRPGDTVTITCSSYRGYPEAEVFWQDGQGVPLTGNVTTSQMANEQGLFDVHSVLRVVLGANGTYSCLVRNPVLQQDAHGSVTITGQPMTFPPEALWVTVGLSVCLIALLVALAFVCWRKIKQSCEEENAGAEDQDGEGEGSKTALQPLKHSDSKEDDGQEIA
The experiment in a line: cell-based or functional assay.

T1 sequence (P01732 22-235): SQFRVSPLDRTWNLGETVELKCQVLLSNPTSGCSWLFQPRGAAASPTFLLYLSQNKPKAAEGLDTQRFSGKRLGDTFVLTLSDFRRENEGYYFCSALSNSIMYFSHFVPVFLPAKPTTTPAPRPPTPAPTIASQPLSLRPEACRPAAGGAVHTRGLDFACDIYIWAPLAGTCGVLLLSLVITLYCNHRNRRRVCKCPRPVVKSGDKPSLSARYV

B1: 5T4 mAb 1/CD3 mAb 2/CD8 mAb 1 Tri-Specific Binding Molecule (other)
chain 1: DIQMTQSPSSLSASVGDRVTITCRASQGISNYLAWFQQKPGKAPKSLIYRANRLQSGVPSRFSGSGSGTDFTLTISSLQPEDVATYYCLQYDDFPWTFGQGTKLEIKGGGSGGGGEVQLVESGGGLVQPGGSLRLSCAASGFTFSTYAMNWVRQAPGKGLEWVGRIRSKYNNYATYYADSVKGRFTISRDDSKNSLYLQMNSLKTEDTAVYYCVRHGNFGNSYVSWFAYWGQGTLVTVSSGGCGGGEVAALEKEVAALEKEVAALEKEVAALEKGGGDKTHTCPPCPAPEAAGGPSVFLFPPKPKDTLMISRTPEVTCVVVDVSHEDPEVKFNWYVDGVEVHNAKTKPREEQYNSTYRVVSVLTVLHQDWLNGKEYKCKVSNKALPAPIEKTISKAKGQPREPQVYTLPPSREEMTKNQVSLWCLVKGFYPSDIAVEWESNGQPENNYKTTPPVLDSDGSFFLYSKLTVDKSRWQQGNVFSCSVMHEALHNHYTQKSLSLSPGK
chain 2: QAVVTQEPSLTVSPGGTVTLTCRSSTGAVTTSNYANWVQQKPGQAPRGLIGGTNKRAPWTPARFSGSLLGGKAALTITGAQAEDEADYYCALWYSNLWVFGGGTKLTVLGGGGSGGGGQVQLVQSGAEVKKPGASVKVSCKASGYTFTSFWMHWVRQAPGQGLEWMGRIDPNRGGTEYNEKAKSRVTMTADKSTSTAYMELSSLRSEDTAVYYCAGGNPYYPMDYWGQGTTVTVSSGGCGGGKVAALKEKVAALKEKVAALKEKVAALKE
heavy: EVQLQQSGAELVKPGASVKLSCTASGFNIKDTYIHFVRQRPEQGLEWIGRIDPANDNTLYASKFQGKATITADTSSNTAYMHLCSLTSGDTAVYYCGRGYGYYVFDHWGQGTTLTVSSASTKGPSVFPLAPSSKSTSGGTAALGCLVKDYFPEPVTVSWNSGALTSGVHTFPAVLQSSGLYSLSSVVTVPSSSLGTQTYICNVNHKPSNTKVDKRVEPKSCDKTHTCPPCPAPEAAGGPSVFLFPPKPKDTLMISRTPEVTCVVVDVSHEDPEVKFNWYVDGVEVHNAKTKPREEQYNSTYRVVSVLTVLHQDWLNGKEYKCKVSNKALPAPIEKTISKAKGQPREPQVYTLPPSREEMTKNQVSLSCAVKGFYPSDIAVEWESNGQPENNYKTTPPVLDSDGSFFLVSKLTVDKSRWQQGNVFSCSVMHEALHNRYTQKSLSLSPGK
light: DVQINQSPSFLAASPGETITINCRTSRSISQYLAWYQEKPGKTNKLLIYSGSTLQSGIPSRFSGSGSGTDFTLTISGLEPEDFAMYYCQQHNENPLTFGAGTKLELRRTVAAPSVFIFPPSDEQLKSGTASVVCLLNNFYPREAKVQWKVDNALQSGNSQESVTEQDSKDSTYSLSSTLTLSKADYEKHKVYACEVTHQGLSSPVTKSFNRGEC
Usually EC50 (read off the curve) stands for the concentration giving half of the maximal effect. A lower EC50 (read off the curve) goes with higher potency in that assay. On to B1, for which, in experiment [1], the concentration giving a half-maximal response (EC50 (read off the curve)) was approximately 1000 pM. Moreover, in experiment [2], the “EC50 (nM) of killing, CD4+ effector cells, JIMT1-luc target cells, E:T 5:1” value was 0.0045 nM; the “EC50 (nM) of killing, CD8+ effector cells, JIMT1-luc target cells, E:T 5:1” value came to 0.0007 nM; the “EC50 (nM) of killing, PanT effector cells, JIMT1-luc target cells, E:T 5:1” value came out at 0.0009 nM.

B2: 5T4 mAb 1/CD3 mAb 2 Fast/CD8 mAb 1 Tri-Specific Binding Molecule (other)
chain 1: DIQMTQSPSSLSASVGDRVTITCRASQGISNYLAWFQQKPGKAPKSLIYRANRLQSGVPSRFSGSGSGTDFTLTISSLQPEDVATYYCLQYDDFPWTFGQGTKLEIKGGGSGGGGEVQLVESGGGLVQPGGSLRLSCAASGFTFSTYAMNWVRQAPGKGLEWVGRIRSKYNNYATYYADSVKGRFTISRDDSKNSLYLQMNSLKTEDTAVYYCVRHKNFGNSYVTWFAYWGQGTLVTVSSASTKGEVAACEKEVAALEKEVAALEKEVAALEKGGGDKTHTCPPCPAPEAAGGPSVFLFPPKPKDTLMISRTPEVTCVVVDVSHEDPEVKFNWYVDGVEVHNAKTKPREEQYNSTYRVVSVLTVLHQDWLNGKEYKCKVSNKALPAPIEKTISKAKGQPREPQVYTLPPSREEMTKNQVSLWCLVKGFYPSDIAVEWESNGQPENNYKTTPPVLDSDGSFFLYSKLTVDKSRWQQGNVFSCSVMHEALHNHYTQKSLSLSPGK
chain 2: QAVVTQEPSLTVSPGGTVTLTCRSSTGAVTTSNYANWVQQKPGQAPRGLIGGTNKRAPWTPARFSGSLLGGKAALTITGAQAEDEADYYCALWYSNLWVFGGGTKLTVLGGGGSGGGGQVQLVQSGAEVKKPGASVKVSCKASGYTFTSFWMHWVRQAPGQGLEWMGRIDPNRGGTEYNEKAKSRVTMTADKSTSTAYMELSSLRSEDTAVYYCAGGNPYYPMDYWGQGTTVTVSSASTKGKVAACKEKVAALKEKVAALKEKVAALKE
heavy: EVQLQQSGAELVKPGASVKLSCTASGFNIKDTYIHFVRQRPEQGLEWIGRIDPANDNTLYASKFQGKATITADTSSNTAYMHLCSLTSGDTAVYYCGRGYGYYVFDHWGQGTTLTVSSASTKGPSVFPLAPSSKSTSGGTAALGCLVKDYFPEPVTVSWNSGALTSGVHTFPAVLQSSGLYSLSSVVTVPSSSLGTQTYICNVNHKPSNTKVDKRVEPKSCDKTHTCPPCPAPEAAGGPSVFLFPPKPKDTLMISRTPEVTCVVVDVSHEDPEVKFNWYVDGVEVHNAKTKPREEQYNSTYRVVSVLTVLHQDWLNGKEYKCKVSNKALPAPIEKTISKAKGQPREPQVYTLPPSREEMTKNQVSLSCAVKGFYPSDIAVEWESNGQPENNYKTTPPVLDSDGSFFLVSKLTVDKSRWQQGNVFSCSVMHEALHNRYTQKSLSLSPGK
light: DVQINQSPSFLAASPGETITINCRTSRSISQYLAWYQEKPGKTNKLLIYSGSTLQSGIPSRFSGSGSGTDFTLTISGLEPEDFAMYYCQQHNENPLTFGAGTKLELRRTVAAPSVFIFPPSDEQLKSGTASVVCLLNNFYPREAKVQWKVDNALQSGNSQESVTEQDSKDSTYSLSSTLTLSKADYEKHKVYACEVTHQGLSSPVTKSFNRGEC
In the case of B2, the “EC50 (read off the curve)” value in experiment [1] was approximately 500 pM. In addition, in experiment [2], the “EC50 (nM) of killing, CD4+ effector cells, JIMT1-luc target cells, E:T 5:1” value came to 0.16 nM; the “EC50 (nM) of killing, CD8+ effector cells, JIMT1-luc target cells, E:T 5:1” value came out at 0.0021 nM; the “EC50 (nM) of killing, PanT effector cells, JIMT1-luc target cells, E:T 5:1” value is 0.0028 nM.

B3: B7-H3 mAb 1/CD3 mAb 2/CD8 mAb 2 Tri-Specific Binding Molecule (other)
chain 1: DIQMTQSPSSLSASVGDRVTITCRASQDISNYLNWYQQKPGKAPKLLIYYTSRLHSGVPSRFSGSGSGTDFTLTISSLQPEDIATYYCQQGNTLPPTFGGGTKLEIKGGGSGGGGEVQLVESGGGLVQPGGSLRLSCAASGFTFSTYAMNWVRQAPGKGLEWVGRIRSKYNNYATYYADSVKDRFTISRDDSKNSLYLQMNSLKTEDTAVYYCVRHGNFGNSYVSWFAYWGQGTLVTVSSGGCGGGEVAALEKEVAALEKEVAALEKEVAALEKGGGDKTHTCPPCPAPEAAGGPSVFLFPPKPKDTLMISRTPEVTCVVVDVSHEDPEVKFNWYVDGVEVHNAKTKPREEQYNSTYRVVSVLTVLHQDWLNGKEYKCKVSNKALPAPIEKTISKAKGQPREPQVYTLPPSREEMTKNQVSLWCLVKGFYPSDIAVEWESNGQPENNYKTTPPVLDSDGSFFLYSKLTVDKSRWQQGNVFSCSVMHEALHNHYTQKSLSLSPGK
chain 2: QAVVTQEPSLTVSPGGTVTLTCRSSTGAVTTSNYANWVQQKPGQAPRGLIGGTNKRAPWTPARFSGSLLGGKAALTITGAQAEDEADYYCALWYSNLWVFGGGTKLTVLGGGGSGGGGQVQLVQSGAEVKKPGASVKVSCKASGYTFTSYWMQWVRQAPGQGLEWMGTIYPGDGDTRYTQKFKGRVTITADKSTSTAYMELSSLRSEDTAVYYCARRGIPRLWYFDVWGQGTTVTVSSGGCGGGKVAALKEKVAALKEKVAALKEKVAALKE
heavy: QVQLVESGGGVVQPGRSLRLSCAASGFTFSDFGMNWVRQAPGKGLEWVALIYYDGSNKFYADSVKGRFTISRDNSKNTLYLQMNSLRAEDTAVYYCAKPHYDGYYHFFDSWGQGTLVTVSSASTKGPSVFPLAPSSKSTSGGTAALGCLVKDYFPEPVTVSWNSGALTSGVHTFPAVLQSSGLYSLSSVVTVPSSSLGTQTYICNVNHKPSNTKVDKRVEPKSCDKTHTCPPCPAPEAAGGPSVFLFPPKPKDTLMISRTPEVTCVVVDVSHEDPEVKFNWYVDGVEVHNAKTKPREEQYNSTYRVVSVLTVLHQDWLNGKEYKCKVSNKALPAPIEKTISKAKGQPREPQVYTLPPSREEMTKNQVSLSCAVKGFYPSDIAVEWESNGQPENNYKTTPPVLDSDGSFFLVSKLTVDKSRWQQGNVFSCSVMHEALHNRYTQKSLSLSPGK
light: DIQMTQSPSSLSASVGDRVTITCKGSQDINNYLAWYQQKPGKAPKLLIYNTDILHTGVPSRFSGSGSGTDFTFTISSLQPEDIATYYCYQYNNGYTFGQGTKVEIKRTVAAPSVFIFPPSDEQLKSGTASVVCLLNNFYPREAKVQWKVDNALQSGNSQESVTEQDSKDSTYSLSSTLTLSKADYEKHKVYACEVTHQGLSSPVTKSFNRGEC
notes: Site A B7-H3, Site B CD3, Site C CD8 (TRX2)
As to B3, the “EC50 (read off the curve)” value in experiment [3] is approximately 1000 pM. In addition, in experiment [4], the “EC50 (nM) of killing, CD4+ effector cells, JIMT1-luc target cells, E:T 5:1” value worked out at 0.314 nM; the “EC50 (nM) of killing, CD8+ effector cells, JIMT1-luc target cells, E:T 5:1” value is 0.0051 nM; the “EC50 (nM) of killing, PanT effector cells, JIMT1-luc target cells, E:T 5:1” value amounted to 0.0058 nM.
